In US20230416352A1:

These binders were tested against Cynomolgus monkey CTGF-Fc (cynomolgus monkey) (assay: ELISA, cyno-CTGF-mFc captured by anti-mFc).
Cynomolgus monkey CTGF-Fc (cynomolgus monkey), sequence (P29279 other isoform, or with tags, fused parts or gaps limits assumed): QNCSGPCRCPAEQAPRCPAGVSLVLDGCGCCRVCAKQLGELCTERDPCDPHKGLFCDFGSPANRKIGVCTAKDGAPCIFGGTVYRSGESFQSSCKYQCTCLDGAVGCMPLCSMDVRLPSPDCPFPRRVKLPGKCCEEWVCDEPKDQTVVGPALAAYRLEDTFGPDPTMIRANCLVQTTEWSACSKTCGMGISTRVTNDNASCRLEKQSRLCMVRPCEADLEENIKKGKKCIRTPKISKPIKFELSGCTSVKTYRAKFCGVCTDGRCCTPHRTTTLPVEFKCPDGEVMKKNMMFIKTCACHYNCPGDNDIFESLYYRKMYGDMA

Binder	EC50 [nM]
Hu164-57wl (antibody, human IgG1, lambda, V domains shown) VH: EVTLKESGPVLVKPTETLTLTCTVSGFSLSTFGVHWIRQPPGKALEWLAVIWRRGGTDYNAAFMSRLTISKDTSKSQVVLTMTNMDPVDTATYYCARDGGFDYWGQGTTVTVSS VL: ETVVTQEPSLTVSPGGTVTLTCRSSIGAVTTSNYANWVQQKPGQAFRGLIGGTSNRAPWTPARFSGSLLGGKAALTLSGVQPEDEAEYYCALWYSTHYVFGGGTKLTVLG	0.029
Hu164-69wl (antibody, human IgG1, lambda, V domains shown) VH: EVTLKESGPVLVKPTETLTLTCTVSGFSLSTFGVHWIRQPPGKGLEWLGVIWRRGGTDYNAAFMSRLTISKDTSKSQVVFTMTNMDPVDTATYYCARDGGFDYWGQGTTVTVSS VL: ESVVTQPPSVSGAPGQRVTISCRSSIGAVTTSNYANWVQQLPGTAFKGLIGGTSNRAPGVPDRFSGSKSGTSASLAITGLQAEDEADYYCALWYSTHYVFGGGTKLTVLG	0.032
Hu164-77wl (antibody, human IgG1, lambda, V domains shown) VH: EVQLQESGPGLVKPSQTLSLTCTVSGFSISTFGVHWIRQHPGKGLEWIGVIWRRGGTDYNAAFMSRVTISKDTSKNQVSLKLSSVTAADTAVYYCARDGGFDYWGQGTTVTVSS VL: ETVVTQEPSLTVSPGGTVTLTCRSSIGAVTTSNYANWVQQKPGQAFRGLIGGTSNRAPWTPARFSGSLLGGKAALTLSGVQPEDEAEYYCALWYSTHYVFGGGTKLTVLG	0.038
Hu164-87wl (antibody, human IgG1, lambda, V domains shown) VH: EVQLQESGPGLVKPSQTLSLTCTVSGFSISTFGVHWIRQHPGKGLEWLGVIWRRGGTDYNAAFMSRLTISKDTSKNQVSFKLSSVTAADTAVYYCARDGGFDYWGQGTTVTVSS VL: ETVVTQEPSLTVSPGGTVTLTCRSSIGAVTTSNYANWVQQKPGQAFRGLIGGTSNRAPWTPARFSGSLLGGKAALTLSGVQPEDEAEYYCALWYSTHYVFGGGTKLTVLG	0.034
Hu164-68wl (antibody, human IgG1, lambda, V domains shown) VH: EVTLKESGPVLVKPTETLTLTCTVSGFSLSTFGVHWIRQPPGKGLEWLGVIWRRGGTDYNAAFMSRLTISKDTSKSQVVFTMTNMDPVDTATYYCARDGGFDYWGQGTTVTVSS VL: ETVVTQEPSFSVSPGGTVTLTCRSSIGAVTTSNYANWVQQTPGQAFRGLIGGTSNRAPGVPDRFSGSILGNKAALTITGAQADDESDYYCALWYSTHYVFGGGTKLTVLG	0.036
Hu147-11wk (antibody, human IgG1, kappa, V domains shown) VH: EVQLVESGGGLVQPGGSLRLSCAASGFTFSTYAMNWVRQAPGKGLEWVGRIRTKSNNYATYYADSVKDRFTISRDDSKNSLYLQMNSLKTEDTAVYYCVETGFAYWDQGTLVTVSS VL: EIVLTQSPATLSLSPGERATLSCSASSSVSYMHWFQQKPGQSPRLLIYSTSNLASGIPARFSGSGSGTDYTLTISSLEPEDFAVYYCQQRSSYPLTFGQGTKLEIKR	0.052
Hu147-31wk (antibody, human IgG1, kappa, V domains shown) VH: EVQLVESGGGLVQPGGSLRLSCAASGFSFNTYAMNWVRQAPGKGLEWVARIRTKSNNYATYYADSVKDRFTISRDDSESSLYLQMNSLKTEDTAVYYCVETGFAYWDQGTLVTVSS VL: EIVLTQSPATLSLSPGERATLSCSASSSVSYMHWFQQKPGQSPRLLIYSTSNLASGIPARFSGSGSGTDYTLTISSLEPEDFAVYYCQQRSSYPLTFGQGTKLEIKR	0.07
Hu147-15wk (antibody, human IgG1, kappa, V domains shown) VH: EVQLVESGGGLVQPGGSLRLSCAASGFTFSTYAMNWVRQAPGKGLEWVGRIRTKSNNYATYYADSVKDRFTISRDDSKNSLYLQMNSLKTEDTAVYYCVETGFAYWDQGTLVTVSS VL: DIQLTQSPSSLSASVGDRVTITCSASSSVSYMHWFQQKPGKSPKLWIYSTSNLASGVPSRFSGSGSGTDYTLTISSLQPEDFATYYCQQRSSYPLTFGQGTKLEIKR	0.053
Hu147-24wk (antibody, human IgG1, kappa, V domains shown) VH: EVQLVESGGGLVQPGGSLRLSCAASGFTFNTYAMNWVRQAPGKGLEWVARIRTKSNNYATYYADSVKDRFTISRDDSKNSLYLQMNSLKTEDTAVYYCVETGFAYWDQGTLVTVSS VL: DIQMTQSPSSLSASVGDRVTITCSASSSVSYMHWFQQKPGKSPKLLIYSTSNLASGVPSRFSGSGSGTDYTLTISSLQPEDFATYYCQQRSSYPLTFGQGTKLEIKR	0.08
Hu147-21wk (antibody, human IgG1, kappa, V domains shown) VH: EVQLVESGGGLVQPGGSLRLSCAASGFTFNTYAMNWVRQAPGKGLEWVARIRTKSNNYATYYADSVKDRFTISRDDSKNSLYLQMNSLKTEDTAVYYCVETGFAYWDQGTLVTVSS VL: EIVLTQSPATLSLSPGERATLSCSASSSVSYMHWFQQKPGQSPRLLIYSTSNLASGIPARFSGSGSGTDYTLTISSLEPEDFAVYYCQQRSSYPLTFGQGTKLEIKR	0.053
Hu147-32wk (antibody, human IgG1, kappa, V domains shown) VH: EVQLVESGGGLVQPGGSLRLSCAASGFSFNTYAMNWVRQAPGKGLEWVARIRTKSNNYATYYADSVKDRFTISRDDSESSLYLQMNSLKTEDTAVYYCVETGFAYWDQGTLVTVSS VL: EIVLTQSPATLSLSPGERATLSCSASSSVSYMHWFQQKPGQSPKLLIYSTSNLASGIPARFSGSGSGTDYTLTISSLEPEDFAVYYCQQRSSYPLTFGQGTKLEIKR	0.079
Hu147-34wk (antibody, human IgG1, kappa, V domains shown) VH: EVQLVESGGGLVQPGGSLRLSCAASGFSFNTYAMNWVRQAPGKGLEWVARIRTKSNNYATYYADSVKDRFTISRDDSESSLYLQMNSLKTEDTAVYYCVETGFAYWDQGTLVTVSS VL: DIQMTQSPSSLSASVGDRVTITCSASSSVSYMHWFQQKPGKSPKLLIYSTSNLASGVPSRFSGSGSGTDYTLTISSLQPEDFATYYCQQRSSYPLTFGQGTKLEIKR	0.144
Hu147-23wk (antibody, human IgG1, kappa, V domains shown) VH: EVQLVESGGGLVQPGGSLRLSCAASGFTFNTYAMNWVRQAPGKGLEWVARIRTKSNNYATYYADSVKDRFTISRDDSKNSLYLQMNSLKTEDTAVYYCVETGFAYWDQGTLVTVSS VL: EIVLTQSPATLSLSPGERATLSCSASSSVSYMHWFQQKPGQSPKLWIYSTSNLASGVPARFSGSGSGTDYTLTISSLEPEDFAVYYCQQRSSYPLTFGQGTKLEIKR	0.063
Hu147-22wk (antibody, human IgG1, kappa, V domains shown) VH: EVQLVESGGGLVQPGGSLRLSCAASGFTFNTYAMNWVRQAPGKGLEWVARIRTKSNNYATYYADSVKDRFTISRDDSKNSLYLQMNSLKTEDTAVYYCVETGFAYWDQGTLVTVSS VL: EIVLTQSPATLSLSPGERATLSCSASSSVSYMHWFQQKPGQSPKLLIYSTSNLASGIPARFSGSGSGTDYTLTISSLEPEDFAVYYCQQRSSYPLTFGQGTKLEIKR	0.073
Hu147-13wk (antibody, human IgG1, kappa, V domains shown) VH: EVQLVESGGGLVQPGGSLRLSCAASGFTFSTYAMNWVRQAPGKGLEWVGRIRTKSNNYATYYADSVKDRFTISRDDSKNSLYLQMNSLKTEDTAVYYCVETGFAYWDQGTLVTVSS VL: EIVLTQSPATLSLSPGERATLSCSASSSVSYMHWFQQKPGQSPKLWIYSTSNLASGVPARFSGSGSGTDYTLTISSLEPEDFAVYYCQQRSSYPLTFGQGTKLEIKR	0.043
Hu147-14wk (antibody, human IgG1, kappa, V domains shown) VH: EVQLVESGGGLVQPGGSLRLSCAASGFTFSTYAMNWVRQAPGKGLEWVGRIRTKSNNYATYYADSVKDRFTISRDDSKNSLYLQMNSLKTEDTAVYYCVETGFAYWDQGTLVTVSS VL: DIQMTQSPSSLSASVGDRVTITCSASSSVSYMHWFQQKPGKSPKLLIYSTSNLASGVPSRFSGSGSGTDYTLTISSLQPEDFATYYCQQRSSYPLTFGQGTKLEIKR	0.077
Hu147-12wk (antibody, human IgG1, kappa, V domains shown) VH: EVQLVESGGGLVQPGGSLRLSCAASGFTFSTYAMNWVRQAPGKGLEWVGRIRTKSNNYATYYADSVKDRFTISRDDSKNSLYLQMNSLKTEDTAVYYCVETGFAYWDQGTLVTVSS VL: EIVLTQSPATLSLSPGERATLSCSASSSVSYMHWFQQKPGQSPKLLIYSTSNLASGIPARFSGSGSGTDYTLTISSLEPEDFAVYYCQQRSSYPLTFGQGTKLEIKR	0.062
Hu147-33wk (antibody, human IgG1, kappa, V domains shown) VH: EVQLVESGGGLVQPGGSLRLSCAASGFSFNTYAMNWVRQAPGKGLEWVARIRTKSNNYATYYADSVKDRFTISRDDSESSLYLQMNSLKTEDTAVYYCVETGFAYWDQGTLVTVSS VL: EIVLTQSPATLSLSPGERATLSCSASSSVSYMHWFQQKPGQSPKLWIYSTSNLASGVPARFSGSGSGTDYTLTISSLEPEDFAVYYCQQRSSYPLTFGQGTKLEIKR	0.044
Hu95-51yk (antibody, human IgG1, kappa, V domains shown) VH: EVQLVQSGAEVKKPGASVKVSCRASGFTFTNYAIHWVKQAPGQRLEWMGLVYPYTGGTAYNQKFKDKVTLTFDTSASTAYMELSSLRSEDTAVYYCARWGMIPGTNSYFDVWGQGTTVTVSS VL: EIVLTQSPATLSLSPGERATLSCRASSSVSYIHWYQQKPGQAPRPWIYATSNLASGIPARFSGSGSGTDYTLTISRLEPEDFAVYYCQQWNSNPWTFGGGTKVEIKR	0.059
